Source: patent US20210246218A1 (LYVGEN BIOPHARMA SUZHOU, published 2021)

Tests used:
Ly052 [1] = biological target: T1, Ly052; assay: ELISA, CD137 protein coated, clone 3712 titrated; flat curve (see non_binding)
T1 chain: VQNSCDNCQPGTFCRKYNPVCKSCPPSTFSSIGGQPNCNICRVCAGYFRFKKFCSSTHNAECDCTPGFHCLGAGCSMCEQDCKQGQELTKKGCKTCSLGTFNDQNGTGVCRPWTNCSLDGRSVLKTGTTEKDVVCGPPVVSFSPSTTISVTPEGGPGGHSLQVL
Description: For the data shown in FIGS. 16C-D, chimeric CD137 receptor protein samples were diluted in DPBS to 5 μg/mL and then coated onto an ELISA plate (Corning, Catalog number: 9018, high binding) at 50 μL (0.25 μg) per well, and incubated at 4° C. overnight. The plate was decanted and washed once; assay diluent was added at 200 μL/well. After a 1-hour incubation at room temperature, the plate was washed with PBST one time. […] The plate was incubated 1 hour at room temperature and then washed three times with PBST. Goat anti-human IgG-H+L HRP-conjugated at 1:100,000 dilution or goat anti-mouse IgG (H+L) secondary antibody, HRP, 10 at 1:50,000 dilution was added to the plate at 100 μL/well. The plate was incubated 1 hour at room temperature followed by washing with PBST four times. The TMB substrate solution was added 100 μL/well. The color was permitted to develop for 15 minutes and then 100 μL/well 2N H2SO4 was added to terminate the reaction. Absorbance at 450 nm and 620 nm was determined by a Tecan F200 Pro reader.

[2] = biological target: T2, human FcγRIIIA-Phe158 on CHO-K1 cells (human, UniProt P08637 17-254); assay: flow cytometry on CHO-huFcγRIIIA cells, PE anti-human Fc F(ab')2
T2 construct: whole, on cells; also called CHO-K1-huFcγRIIIA-Phe158; CHO-huFcγIIIA
T2 sequence (P08637 17-254): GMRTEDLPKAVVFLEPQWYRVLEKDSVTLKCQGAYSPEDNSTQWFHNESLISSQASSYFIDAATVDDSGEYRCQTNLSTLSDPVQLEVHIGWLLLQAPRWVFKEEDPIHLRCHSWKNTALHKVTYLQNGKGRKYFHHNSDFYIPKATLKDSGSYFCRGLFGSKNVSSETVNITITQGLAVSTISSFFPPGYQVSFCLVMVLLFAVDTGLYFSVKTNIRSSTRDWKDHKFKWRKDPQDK
Description: (§1) The plate was mixed and incubated in the dark for 2 hours at 4° C.

Ly052 [3] = biological target: T1, Ly052; assay: ELISA, clone 3712-IgG1v coated, CD137 protein titrated (EC50 is a concentration of the CD137 protein); curve rises only above about 1000 ng/mL to about 0.61 at 100000 ng/mL, no plateau seen
Description: The plate was decanted and washed once; assay diluent was added 200 μL/well. After one-hour incubation at room temperature, the plate was washed with PBST one time. CD137 receptor human/mouse chimeras were diluted in assay diluent to 100 or 10 μg/mL, and then a 4-fold serial dilution in assay diluent for 11 points to final concentrations of 100000, 25000, 6250, 1562.5, 390.63, 97.66, 24.41, 6.10, 1.53, 0.38 and 0.095 ng/mL or 10000, 2500, 625, 156.25, 39.06, 9.77, 2.44, 0.61, 0.15, 0.038 and 0.0095 ng/mL. The diluted CD137 receptor was added to the assay plate, 50 μL/well, in duplicate. The plate was incubated one hour at room temperature and then washed three times with PBST. Goat anti-human IgG-H+L HRP conjugated at 1:100,000 20 dilution was added to the plate at 100 μL/well. The plate was then incubated one hour at room temperature followed by washing with PBST four times. The TMB substrate solution was added at 100 μL/well. The color was allowed to develop for 15 minutes, and was stopped with 100 μL/well 2N H2SO4. Absorbance at 450 nm and 620 nm was determined by a Tecan F200 Pro reader.

human CD137 on cells = biological target: T3, human CD137 on cells (human, UniProt Q07011 24-255); assay: flow cytometry, cellular CD137; human CD137
T3 construct: whole, on cells; also called CHO-human CD137; CHO cells over-expressing human CD137
T3 sequence (Q07011 24-255): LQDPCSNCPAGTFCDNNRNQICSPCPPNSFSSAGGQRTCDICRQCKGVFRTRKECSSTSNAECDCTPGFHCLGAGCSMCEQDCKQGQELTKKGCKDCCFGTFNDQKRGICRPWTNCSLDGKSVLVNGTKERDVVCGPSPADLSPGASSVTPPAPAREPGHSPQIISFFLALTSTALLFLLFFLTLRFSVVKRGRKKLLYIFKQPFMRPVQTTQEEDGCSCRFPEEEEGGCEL
Description: CHO cells over-expressing human or cynomolgus monkey CD137 and CHO parental cells were harvested by centrifugation at 1000 g for 3 minutes. The cells were resuspended in ice cold assay buffer at 2*10\hat{ }6/mL and transferred to 96-well V-bottom plate with 100 μL/well. […] The plate was mixed and incubated in the dark for 2 hours at 4° C. The cells were washed 3 times by centrifugation at 1000 g for 3 min and resuspended in ice cold assay buffer containing goat F(ab′)₂ anti-human IgG-Fc (PE), 100 μL/well. The plate was incubated in the dark for another 1 hour at 4° C. The cells were washed 2 times by centrifugation at 1000 g for 3 min and resuspended in ice cold assay buffer containing 2% PFA. The cells were then subjected to the flow cytometer immediately.
Mean fluorescence intensity (MFI) was calculated from the total cell population in the FCM experiments. Graphpad 7.0, “[Agonist] vs. response—Variable slope (four parameters)” was used to plot the binding MFI in dose response and to calculate FCM binding EC₅₀ values.

[4] = biological target: T4, human FcγRIIA-His131 on CHO-K1 cells (human, UniProt P12318 34-317); assay: flow cytometry on CHO-huFcγRIIA-H131 cells, PE anti-human Fc F(ab')2
T4 construct: whole, on cells; Allotype His131; also called CHO-K1-huFcγRIIA-His131; CHO-huFcγRIIA-H131
T4 sequence (looked up): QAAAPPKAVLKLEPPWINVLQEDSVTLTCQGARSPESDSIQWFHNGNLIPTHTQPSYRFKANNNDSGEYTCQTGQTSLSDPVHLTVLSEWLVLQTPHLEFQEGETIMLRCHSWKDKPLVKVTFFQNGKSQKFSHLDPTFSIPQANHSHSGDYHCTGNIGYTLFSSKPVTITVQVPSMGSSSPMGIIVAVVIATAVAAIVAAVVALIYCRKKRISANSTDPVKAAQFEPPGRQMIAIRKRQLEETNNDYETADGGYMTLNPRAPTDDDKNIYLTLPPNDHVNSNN
Description: as §1

B1: Clone 3712-IgG1v (IgG1v/kappa) (antibody)
heavy: QVQLVQSGAEVKKPGASVKVSCKASGYTFAGFEMHWVRQAPGQGLEWMGAIDPKTGGTDYNQKFKDRVTMTRDTSISTAYMELSRLRSDDTAVYYCARDLGYFDVWGQGTLVTVSSASTKGPSVFPLAPSSKSTSGGTAALGCLVKDYFPEPVTVSWNSGALTSGVHTFPAVLQSSGLYSLSSVVTVPSSSLGTQTYICNVNHKPSNTKVDKKVEPKSCDKTHTCPPCPAPELLGPSVFLFPPKPKDTLMISRTPEVTCVVVDVEHEDPEVKFNWYVDGVEVHNAKTKPREEQYNSTYRVVSVLTVLHQDWLNGKEYKCKVSNKALPAPIEKTISKAKGQPREPQVYTLPPSREEMTKNQVSLTCLVKGFYPSDIAVEWESNGQPENNYKTTPPVLDSDGSFFLYSKLTVDKSRWQQGNVFSCSVMHEALHNHYTQKSLSLSPGK
light: DIQMTQSPSSLSASVGDRVTITCRASQDIRSNLNWYQQKPGGAVKLLIYYTSRLHSGVPSRFSGSGSGTDYTLTISSLQPEDFATYFCQQSEKLPRTFGGGTKVEIRRTVAAPSVFIFPPSDEQLKSGTASVVCLLNNFYPREAKVQWKVDNALQSGNSQESVTEQDSKDSTYSLSSTLTLSKADYEKHKVYACEVTHQGLSSPVTKSFNRGEC
notes: copies: 2 + 2
Question: How did the EC50 (Ly052 [1]) turn out when B1 was run?
Answer: 0.000749 mg/L

Question: Does B1 bind [2]?
Answer: no binding (tested: 100 µg/mL)

Question: What about the EC50 (Ly052 [3]) of the same binder?
Answer: 29.5 mg/L

Question: And the EC50 (human CD137 on cells)?
Answer: ~0.3 nM

Question: Does B1 bind [4]?
Answer: no binding (tested: 100 µg/mL)
